# B1: STIMATE-CT (analyte of the SPR) (domain or fragment)
# chain: DNFLMRKGKTKAKLEERGANQDSRNGSKVRYRRAASHEESESEILISADDEMEESDVEEDLRRLTPLKPVKKKKHRFGLPV
# Biological target: CGG-CC1 (human, UniProt Q13586 233-343)
# Assay: SPR
# CGG-CC1, sequence (Q13586 233-343): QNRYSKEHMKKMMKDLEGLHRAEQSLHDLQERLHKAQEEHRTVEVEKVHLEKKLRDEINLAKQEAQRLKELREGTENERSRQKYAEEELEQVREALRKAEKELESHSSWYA
binder,measurement,value
B1,Kd,8.9 ± 0.7 µM

# Reference: article PMC4589512 (Nature cell biology, 2015)
